Test results as given in article PMC5240623.

How the values were obtained:
[1] = system: EmMBD2/3 MBD (Ephydatia muelleri); assay: SPR; settings: SPR: 10 mM HEPES pH 7.4, 50 mM NaCl, 3 mM MgCl2, 0.1 mM EDTA, 1 mM DTT, 0.05% polysorbate 20, temperature not stated, NMR conditions not in material
[2] = system: EmMBD2/3a coiled-coil domain (amino acids 324–354), thioredoxin fusion; assay: AUC; sedimentation velocity, 40,000 rpm, 293 K, 20 mM Tris pH 8.0, 150 mM NaCl; thioredoxin fusions left uncleaved; each peptide in isolation and a 100 μM mixture
[3] = biological target: HsGATAD2A coiled-coil domain, uncleaved fusion peptide (human) (UniProt Q86YP4); assay: ITC; fusion peptides left uncleaved; 50 mM Hepes pH 7.4, 150 mM NaCl, 298 K; MicroCal Auto-iTC200, 20–24 injections; HsMBD2 (1.8 mM), EmGATAD2A/B (2.74 mM), DmGATAD2A/B (2.5 mM) injected into HsGATAD2A (100 μM), EmMBD2/3 (270 μM), DmMBD2/3 (250 μM); one-site binding model
[4] = biological target: EmMBD2/3a coiled-coil domain (amino acids 324–354), thioredoxin fusion (E. muelleri); assay: as above
[5] = biological target: DmMBD2/3 coiled-coil domain (amino acids 309–339), thioredoxin fusion (D. melanogaster); assay: as above
[6] = biological target: EmGATAD2A/B coiled-coil domain (amino acids 58–100), thioredoxin fusion (E. muelleri); assay: as above

Sequence of DmMBD2/3 coiled-coil domain (amino acids 309–339), thioredoxin fusion (D. melanogaster) (main, as listed by the source): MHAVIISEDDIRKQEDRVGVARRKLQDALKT
Sequence of HsGATAD2A coiled-coil domain, uncleaved fusion peptide (human) (Q86YP4 137-178): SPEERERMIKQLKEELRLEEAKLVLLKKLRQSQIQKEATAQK
Sequence of HsMBD2 coiled-coil domain, uncleaved fusion peptide (Q9UBB5 360-393): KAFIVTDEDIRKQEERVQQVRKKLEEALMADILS

**Q.** “GAGGCGCTCGGCGGCAG (double strand) [CpG(x3) 17 bp, 3'-biotin]” was tested. Which Kd [1] did it give?
**A.** Its Kd is 65 µM.

**Q.** “EmGATAD2A/B coiled-coil domain (amino acids 58–100), thioredoxin fusion” was tested. Which “percent of heterodimeric species in a 100 μM mixture” value [2] did it give?
**A.** The value was “heterodimeric (45.1 kDa, 58.1%)”.

**Q.** For “EmMBD2/3a coiled-coil domain (amino acids 324–354), thioredoxin fusion (domain or fragment)”, which Kd [3] is on record?
**A.** The Kd was 0.38 µM.

**Q.** What about the dH [3] of the same substance?
**A.** The dH was -8.99 kcal/mol.

**Q.** And the stoichiometry N [3]?
**A.** The stoichiometry N was 1.3.

**Q.** With “EmGATAD2A/B coiled-coil domain (amino acids 58–100), thioredoxin fusion (domain or fragment)” as the substance, how does the Kd [4] read?
**A.** The Kd was 9.2 µM.

**Q.** What about the dH [4] of the same substance?
**A.** The dH was -9.8 kcal/mol.

**Q.** What about the stoichiometry N [4] of the same substance?
**A.** Its stoichiometry N is 0.8.

**Q.** For “GAGGCGCTCGGCGGCAG (double strand) [mCpG 17 bp, 3'-biotin]”, which Kd ([1]; 5-methyl-C at C9 of strand 1 and C8 of strand 2 (central CpG), two other CpGs unmethylated) is on record?
**A.** Its Kd is 0.43 µM.

**Q.** How did the Kd [5] turn out when “DmGATAD2A/B coiled-coil domain (amino acids 183–223), thioredoxin fusion (domain or fragment)” was run?
**A.** Its Kd is 7.4 µM.

**Q.** And the dH [5]?
**A.** The dH was -27.6 kcal/mol.

**Q.** And the stoichiometry N [5]?
**A.** The stoichiometry N was 1.

**Q.** With “HsMBD2 coiled-coil domain, uncleaved fusion peptide (from UniProt Q9UBB5 360-393) (domain or fragment)” as the substance, how does the Kd [6] read?
**A.** The Kd was 1.3 µM.

**Q.** What about the dH [6] of the same substance?
**A.** The dH was -8.92 kcal/mol.

**Q.** And the stoichiometry N [6]?
**A.** The stoichiometry N was 1.1.
